Experiments:
[1] = molecular target: the molecule itself; assay: native gel or EMSA; native PAGE of the purified proteins; conditions not given
[2] = molecular target: the molecule itself; assay: MST; homodimerisation (dimer to monomers); 100 nM Red-NHS-labelled apo-protein titrated with unlabelled apo-protein of the same variant (180 uM-5.5 nM ZnT8cR or 124 uM-3.8 nM ZnT8cW); 10 mM potassium phosphate pH 8, 60 mM NaCl, 20 mM sucrose, 100 uM TCEP, 1 mM EDTA, 0.05% Tween-20; 25 °C; Monolith NT.115

Protein | stoichiometry N [1] | Kd [2] [µM]
R325 variant of ZnT8 CTD (aa267-369) (domain or fragment, human, UniProt Q8IWU4 267-369, looked up, amine-reactive Red-NHS dye (Monolith NT.115 labelling kit) on the labelled copy in MST; the titrated copy unlabelled, human zinc transporter ZnT8 (SLC30A8), C-terminal cytosolic domain, residues 267-369, Arg at position 325; numbers count on the full-length human ZnT8 long isoform (Ensembl transcript SLC30A8-002); A TEV protease cleavage site stands between the N-terminal hexahistidine tag and the domain (vector pET6H); Calculated monomer mass with tag and TEV site 13.3 kDa; also called ZnT8cR; apo-ZnT8cR; …) LKDFSILLMEGVPKSLNYSGVKELILAVDGVLSVHSLHIWSLTMNQVILSAHVATAASRDSQVVRREIAKALSKSFTMHSLTIQMESPVDQDPDCLFCEDPCD | 2 | 4.3
W325 variant of ZnT8 CTD (aa267-369) (domain or fragment, human, UniProt Q8IWU4 267-369, looked up, amine-reactive Red-NHS dye (Monolith NT.115 labelling kit) on the labelled copy in MST; the titrated copy unlabelled, numbers count on the full-length human ZnT8 long isoform (Ensembl transcript SLC30A8-002); A TEV protease cleavage site stands between the N-terminal hexahistidine tag and the domain (vector pET6H); also called ZnT8cW; apo-ZnT8cW; source: apo form made with TCEP and EDTA; not shown: His6, N-terminal, kept) LKDFSILLMEGVPKSLNYSGVKELILAVDGVLSVHSLHIWSLTMNQVILSAHVATAASWDSQVVRREIAKALSKSFTMHSLTIQMESPVDQDPDCLFCEDPCD | 2 | 1.8
